Laboratory results taken from PMC7093204 (Nature, 2020).

B1: Rsc8 (natural protein)
chain: MSDTEKDKDVPMVDSHEATEEPPTTSTNTPSFPHLAQEQAKEESATLGAEVAHKKINYEQEAQKLEEKALRFLAKQTHPVIIPSFASWFDISKIHEIEKRSNPDFFNDSSRFKTPKAYKDTRNFIINTYRLSPYEYLTITAVRRNVAMDVASIVKIHAFLEKWGLINYQIDPRTKPSLIGPSFTGHFQVVLDTPQGLKPFLPENVIKQEVEGGDGAEPQVKKEFPVNLTIKKNVYDSAQDFNALQDESRNSRQIHKVYICHTCGNESINVRYHNLRARDTNLCSRCFQEGHFGANFQSSDFIRLENNGNSVKKNWSDQEMLLLLEGIEMYEDQWEKIADHVGGHKRVEDCIEKFLSLPIEDNYIREVVGSTLNGKGGDSRDGSVSGSKLMECVNDAVQTLLQGDDKLGKVSDKSREISEKYIEESQAIIQELVKLTMEKLESKFTKLCDLETQLEMEKLKYVKESEKMLNDRLSLSKQILDLNKSLEELNVSKKLVLISEQVDSGIQLVEKDQEGDDEDGNTATGHGVKRVGKEGEEVGEGDSIAKLQPQVYKPWSL

Columns and labels:
cryo-EM structure = biological target: the molecule itself; experiment: cryo-EM structure
Rsc8 = biological target: B1; experiment: cryo-EM structure

Row | binding result (Rsc8) | Binder | binding result (cryo-EM structure)
1 | – | B1 | binds
2 | binds | Sfh1 (natural protein) MSHQNQLIPQAYISNFHNRLTNEDDGIPIFTMAQQTRQHKRAKVVNYAEYDNDLFDEFNMNGSNFNNADTHYKDNAVSHENTPALTNGVTMDGSEYNVLENMNGADSIISNNKYDAGSNMVVESLSGLNSNNNASNGPSNKAQAQDIGNAVLPDLQDQHHNPFNILRYPKIRDTFINGKVVSPYRLNTDQETKANANSGEAIMIPITLDIEHMGHTIKDQFLWNYNDDSISPEEFASIYCKDLDMTSATLQTQIANIIKEQLKDLENIAATEIMSDLHVIINLTCNLQDRFFEDNFQWNLNDKSLTPERFATSIVQDLGLTREFIPLISQSLHETILKIKKDWVDGHLIQDHVPNDAAFGYLSGIRLDIDELGSNWCPRVEILTKEEIQKREIEKERNLRRLKRETDRLSRRGRRRLDDLETTMRM | –
3 | binds | Rsc6 (natural protein) MVTQTNPVPVTYPTDAYIPTYLPDDKVSNLADLKKLIEMDSRLDLYLTRRRLDTSINLPTNTKTKDHPPNKEMLRIYVYNTTESSPRSDSGTPADSGKTTWTLRIEGKLLHESANGKHPFSEFLEGVAVDFKRLKPLGMGKKRKRDSSLSLPLNLQQPEYNDQDSTMGDNDNGEDEDSAEAESREEIVDALEWNYDENNVVEFDGIDIKRQGKDNLRCSITIQLRGVDGGKVQYSPNLATLIGMQTGSVNDAVYSIYKYILINNLFVTEQTEAQDGSNDAEDSSNENNNKNGAGDDDGVEGSTPKDKPELGEVKLDSLLQKVLDTNAAHLPLMNVVQTVNKLVSPLPPIILDYTIDLSKDTTYGATTLDVDVSHILHQPQPQPNLQKEEETDAEDTAKLREITKLALQLNSSAQKYQFFHELSLHPRETLTHYLWSSKQNELVLQGDQYFNEDAARTSDIYSNNNNDRSLMGNISLLYSQGRL | –
